Experimental data as given in US20090297438A1, “Human Monoclonal Antibodies to Prostate Specific Membrane Antigen (PSMA)” (priority 2005, published 2009).
Entries after “also recorded” stand apart in the source; their conditions may differ.

B1: 2F5: human monoclonal anti-PSMA antibody, VH SEQ ID NO: 3, VL SEQ ID NO: 7 (antibody, listed as Homo sapiens, V domains shown)
VH: EVQLVQSGAEVKKPGESLKISCKGSGYSFTSNWIGWVRQMPGKGLEWMGIIYPGDSDTRYSPSFQGQVTISADKSISTAYLQWNSLKASDTAMYYCARQTGFLWSFDLWGRGTLVTVSS
VL: AIQLTQSPSSLSASVGDRVTITCRASQDISSALAWYQQKPGKAPKLLIYDASSLESGVPSRFSGSGSGTDFTLTISSLQPEDFATYYCQQFNSYPLTFGGGTKVEIKIK
B2: 2C6: human monoclonal anti-PSMA antibody, VH SEQ ID NO: 4, VL SEQ ID NO: 8 (antibody, listed as Homo sapiens, V domains shown)
VH: EVQLVQSGSEVKKPGESLKISCKGSGYSFTNYWIGWVRQMPGKGLEWMGIIYPGDSDTRYSPSFQGQVTISADKSISTAYLQWSSLKASDTAMYYCASPGYTSSWTSFDYWGQGTLVTVSS
VL: EIVLTQSPATLSLSPGERATLSCRASQSVSSYLAWYQQKPGQAPRLLIYDASNRATGIPARFSGSGSGTDFTLTISSLEPEDFAVYYCQQRSNWPLFTFGPGTKVDIK
B3: 1C3: human monoclonal anti-PSMA antibody, VH SEQ ID NO: 1, VL SEQ ID NO: 5 (antibody, listed as Homo sapiens, V domains shown)
VH: QVQLVESGGGVVQPGRSLRLSCAASGFTFSSYAMHWVRQAPGKGLEWVAVISYDGNNKYYADSVKGRFTISRDNSKNTLYLQMNSLRAEDTAVYYCARAVPWGSRYYYYGMDVWGQGTTVTVSS
VL: AIQLTQSPSSLSASVGDRVTITCRASQGISSALAWYQQKSGKAPKLLIFDASSLESGVPSRFSGSGSGTDFTLTISSLQPEDFATYYCQQFNSYPLTFGGGTKVEIK

Assays:
[1] = target: T1, PSMA immunopurified from LNCaP cells (Homo sapiens, UniProt Q04609); test: Binding specificity by ELISA; settings: antibody from 5 μg/ml, 1:2 serial dilutions
T1 construct: endogenous in cells; host or cells: LNCaP cells (protein immunopurified from them)
T1 sequence (Q04609 whole entry): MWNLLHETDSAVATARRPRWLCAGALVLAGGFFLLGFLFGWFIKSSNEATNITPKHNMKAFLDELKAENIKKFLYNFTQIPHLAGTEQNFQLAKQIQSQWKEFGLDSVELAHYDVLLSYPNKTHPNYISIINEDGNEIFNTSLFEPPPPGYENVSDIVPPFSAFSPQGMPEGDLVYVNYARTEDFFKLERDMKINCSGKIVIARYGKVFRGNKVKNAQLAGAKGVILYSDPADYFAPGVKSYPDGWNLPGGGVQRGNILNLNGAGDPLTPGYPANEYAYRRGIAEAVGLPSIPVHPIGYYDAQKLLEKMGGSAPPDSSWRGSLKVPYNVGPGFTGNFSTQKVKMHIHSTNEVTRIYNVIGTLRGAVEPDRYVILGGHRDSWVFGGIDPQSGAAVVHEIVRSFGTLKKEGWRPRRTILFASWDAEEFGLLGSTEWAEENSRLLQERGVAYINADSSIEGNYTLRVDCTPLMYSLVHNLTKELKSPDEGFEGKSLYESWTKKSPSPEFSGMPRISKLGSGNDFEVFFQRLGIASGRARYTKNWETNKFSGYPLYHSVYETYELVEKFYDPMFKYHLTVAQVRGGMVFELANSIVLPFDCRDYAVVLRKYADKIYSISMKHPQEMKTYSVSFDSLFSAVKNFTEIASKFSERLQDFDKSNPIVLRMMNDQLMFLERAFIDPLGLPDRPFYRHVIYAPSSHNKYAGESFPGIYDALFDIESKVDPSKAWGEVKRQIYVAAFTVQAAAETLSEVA
Description: A comparison of anti-PSMA antibodies on binding to immunopurified PSMA was performed by standard ELISA to examine the specificity of binding for PSMA.
PSMA was immunopurified from LNCaP cells and tested for binding against the anti-PSMA human monoclonal antibodies 1C3, 2A10, 2F5, and 2C6. Standard ELISA procedures were performed. The anti-PSMA human monoclonal antibodies were added at a concentration of 5 μg/ml and titrated down at 1:2 serial dilutions. Goat-anti-human IgG (kappa chain-specific) polyclonal antibody conjugated with horseradish peroxidase (HRP) was used as secondary antibody. The human anti-PSMA monoclonal antibody 7F12 was used as a positive control and a blank was used as a negative control.

[2] = target: T2, PSMA-expressing LNCaP cells (Homo sapiens, UniProt Q04609); test: Binding specificity by flow cytometry; settings: FITC-labeled anti-human IgG detection, different antibody concentrations
T2 construct: host or cells: LNCaP human prostate cancer cells
T2 sequence (Q04609 whole entry): as above
Description: The human PSMA-expressing prostate cancer cell line LNCaP was used to determine the specificity of anti-PSMA human monoclonal antibodies by flow cytometry. Binding of the 2F5, 2A10, and 2C6 anti-PSMA human monoclonal antibodies was assessed by incubating the LNCaP cells with the anti-PSMA human monoclonal antibodies at different concentrations. The cells were washed and binding was detected with a FITC-labeled anti-human IgG Ab. Flow cytometric analyses were performed using a FACScan flow cytometry (Becton Dickinson, San Jose, Calif.). The human anti-PSMA monoclonal antibody 7F12 (as described in PCT Publication WO 03/064606) was used as a positive control and a non-PSMA specific isotype control antibody was used as a negative control. The results are depicted in FIG. 9.

| Molecule | binding to immunopurified PSMA [1] | binding to PSMA-expressing LNCaP cells [2] |
| --- | --- | --- |
| B1 | bound with high specificity | bound specifically; also recorded: binds the cell surface of PSMA-expressing LNCaP cells |
| B2 | detectable but only low level binding | bound specifically; also recorded: binds the cell surface of PSMA-expressing LNCaP cells |
| B3 | detectable but only low level binding | – |
